For three molecules, Kd results are on record in patent CN111393529A (KANGYUAN BOCHUANG BIO TECH BEIJING CO LTD, dated 2020).

The target of the assay is T1, OX40蛋白胞外区与小鼠IgG2a-FC的融合蛋白 (human; mouse, UniProt P43489 29-214).
T1 construct: also called 抗原OX40小鼠IgG2a Fc标签蛋白; 实施例1中的融合蛋白; not shown: Mouse IgG2a Fc, from Genbank AAH31470.1
T1 sequence: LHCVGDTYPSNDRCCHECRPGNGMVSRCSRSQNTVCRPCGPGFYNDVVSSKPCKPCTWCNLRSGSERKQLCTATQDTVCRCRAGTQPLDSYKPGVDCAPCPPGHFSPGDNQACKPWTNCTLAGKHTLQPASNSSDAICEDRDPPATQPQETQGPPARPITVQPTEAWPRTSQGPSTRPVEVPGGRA
Description: SPR, Biacore T200, antibody captured on CM5 chip, OX40-mouse IgG2a Fc as analyte. Background: In SPR one partner is held on a chip, and binding of the other changes the refractive index at the surface.

B1: 抗体H1K1 (antibody, V domains shown)
VH: EVQLQQPGSVLVRPGTSVKLSCKASGYTFTSSWIHWARQRPGQGLEWIGDIHPNSGNTNYNEKFKGKATLTVDTSSSTAYVDLSSLTSEDSAVYYCVRSYGNYKDYYGMDYWGQGTSVTVSS
VL: DILMTQSPASLAVSLGQRATISCKASQSVDYDGDSYMNWYQQKPGQPPKLLIYAASNLESGIPARFSGSGSGTDFTLNIHPVEEEDAATYYCQQSNEDPYTFGGGTKLEIKR
As usually defined, the Kd is the free concentration of one partner at which half of the binding sites on the other are occupied at equilibrium, for simple one-to-one binding. Low readings indicate a tighter complex, high ones a looser complex. As to B1, the Kd turned out to be 11 nM.

B2: 抗体H1E6 (antibody, V domains shown)
VH: EVKLVESGAELVKPGTSVRLSCKASGYTFTSYDINWVRQRPEQGLEWIGWIFPGDGSTKYNEKFKGKATLTTDKSSSTVYMQLSRLTSEDSAVYFCARWDGYYEGDYFDNWGQGTTLTVSS
VL: DIVMTQSPSSLSASLGGKVTITCKASQDINKYIAWYQHKPGKGPRLLIHYTSTLQPGIPSRFSGSGSGRDYSFNISNLEPEDIATYYCLQYVNLYTFGGGTKLEIKR
Molecule B2 yielded a Kd of 5.1 nM.

B3: 抗体I3E3 (antibody, V domains shown)
VH: EVKLVESGGGLVQPGGSLRLSCATSGFTFSDFYMGWVRQPPGKRLEWIAASRNKAYDYTTAYSASVKGRFIVSRDTSQSILYLQMNALRAEDTAIYYCARDDGYYPMDYWGQGTSVTVSS
VL: DIQLTQSPASLAVSLGQRATISCRASKSVSTSGYSYMHWYQQKPGQPPKLLIYLASNLESGVPARFSGSGSGTDFTLNIHPVEEEDAATYYCQHSRELPLTFGAGTKLELKR
Molecule B3 gave a Kd of 4.4 nM.
